Reference: the supplement of paper PMC9112550, “Optimization of the antimicrobial peptide Bac7 by deep mutational scanning” (BMC Biology, 2022)

What follows are sequences tested on Escherichia coli TOP10 (assay: shrunken log2 fold change of peptide-encoding DNA abundance (4.5 h post-induction vs induction); higher = less antimicrobial activity (less host growth inhibition)). Conditions: time post-induction: 4.5 h; library: site-saturation at positions 5, 18, 19, 20.
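Further: peptides expressed intracellularly from a pBAD plasmid library in pooled LB shake-flask culture, induced with 0.3% L-arabinose, DNA abundance read by NGS, three biological replicates, DESeq2 with apeglm shrinkage.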

Sequence	shrunken log2 fold change
RRIRFRPPRLPRPRPRPLVCPRP	-0.365
RRIRRRPPRLPRPRPRPALYPRP	0.225
RRIRYRPPRLPRPRPRPKCAPRP	0.0118
RRIRMRPPRLPRPRPRPVDHPRP	-0.0711
RRIRCRPPRLPRPRPRPTQDPRP	0.805
RRIRCRPPRLPRPRPRPQVRPRP	-0.236
RRIRVRPPRLPRPRPRPMRPPRP	0.544
RRIRYRPPRLPRPRPRPEQYPRP	-0.0207
RRIRCRPPRLPRPRPRPDTAPRP	-0.051
RRIRLRPPRLPRPRPRPVMPPRP	-0.29
RRIRCRPPRLPRPRPRPDAKPRP	0.0864
RRIRKRPPRLPRPRPRPDWKPRP	-0.0149
RRIRNRPPRLPRPRPRPNFIPRP	-0.105
RRIRIRPPRLPRPRPRPISTPRP	-1.54
RRIRRRPPRLPRPRPRPMSAPRP	0.128
RRIRTRPPRLPRPRPRPAWPPRP	0.444
RRIRMRPPRLPRPRPRPWDKPRP	-0.0134
RRIRCRPPRLPRPRPRPNVAPRP	0.0221
RRIRYRPPRLPRPRPRPIVAPRP	-0.246
RRIRMRPPRLPRPRPRPPLGPRP	1.08
RRIRFRPPRLPRPRPRPKLNPRP	-0.193
RRIRTRPPRLPRPRPRPQIMPRP	-0.337
RRIRERPPRLPRPRPRPKQMPRP	-0.19
RRIRIRPPRLPRPRPRPGTMPRP	-0.112
RRIRHRPPRLPRPRPRPSMNPRP	-0.253

Sequence	shrunken log2 fold change
RRIRVRPPRLPRPRPRPVWSPRP	0.754
RRIRSRPPRLPRPRPRPKDRPRP	0.201
RRIRCRPPRLPRPRPRPPMPPRP	0.45
RRIRSRPPRLPRPRPRPAWQPRP	0.0367
RRIRKRPPRLPRPRPRPDMMPRP	1.43
RRIRKRPPRLPRPRPRPSFRPRP	-0.294
RRIRGRPPRLPRPRPRPQNRPRP	0.0342
RRIRIRPPRLPRPRPRPEYRPRP	-1.12
RRIRHRPPRLPRPRPRPDQKPRP	0.0292
RRIRSRPPRLPRPRPRPPTYPRP	-0.243
RRIRRRPPRLPRPRPRPTIQPRP	0.144
RRIRSRPPRLPRPRPRPDPVPRP	0.377
RRIRLRPPRLPRPRPRPLTYPRP	-0.448
RRIRKRPPRLPRPRPRPILLPRP	-0.313
RRIRRRPPRLPRPRPRPEVSPRP	0.214
RRIRNRPPRLPRPRPRPIYEPRP	-0.232
RRIRTRPPRLPRPRPRPYMCPRP	-0.827
RRIRIRPPRLPRPRPRPVNIPRP	-0.17
RRIRTRPPRLPRPRPRPIPDPRP	-0.32
RRIRWRPPRLPRPRPRPVDTPRP	0.00157
RRIRARPPRLPRPRPRPEVTPRP	1.28
RRIRNRPPRLPRPRPRPPRTPRP	0.59
RRIRQRPPRLPRPRPRPGYGPRP	-0.131
RRIRARPPRLPRPRPRPRHWPRP	0.511
RRIRPRPPRLPRPRPRPAWCPRP	0.252

Sequence	shrunken log2 fold change
RRIRDRPPRLPRPRPRPHRSPRP	-0.015
RRIRARPPRLPRPRPRPYVLPRP	-0.347
RRIRSRPPRLPRPRPRPWMAPRP	0.0303
RRIRSRPPRLPRPRPRPPWFPRP	0.238
RRIRRRPPRLPRPRPRPCPHPRP	-0.27
RRIRKRPPRLPRPRPRPLTNPRP	-0.0294
RRIRPRPPRLPRPRPRPHKNPRP	-0.0554
RRIRMRPPRLPRPRPRPCPWPRP	0.0763
RRIRQRPPRLPRPRPRPFWFPRP	0.0862
RRIRSRPPRLPRPRPRPSHSPRP	-0.706
RRIRIRPPRLPRPRPRPHMIPRP	-0.602
RRIRKRPPRLPRPRPRPSYMPRP	-0.0995
RRIRVRPPRLPRPRPRPQSWPRP	0.256
RRIRYRPPRLPRPRPRPSTAPRP	-0.0926
RRIRQRPPRLPRPRPRPNRLPRP	0.0179
RRIRNRPPRLPRPRPRPSSIPRP	-0.0475
RRIRMRPPRLPRPRPRPSQFPRP	0.379
RRIRSRPPRLPRPRPRPGWWPRP	4.72
RRIRCRPPRLPRPRPRPWWAPRP	1.27
RRIRVRPPRLPRPRPRPYVQPRP	-0.918
RRIRGRPPRLPRPRPRPEVHPRP	0.141
RRIRPRPPRLPRPRPRPGQPPRP	-0.0656
RRIRERPPRLPRPRPRPGVAPRP	0.146
RRIRHRPPRLPRPRPRPYIEPRP	-0.68
RRIRERPPRLPRPRPRPSPLPRP	-0.0982

Sequence	shrunken log2 fold change
RRIRVRPPRLPRPRPRPKCNPRP	-0.181
RRIRVRPPRLPRPRPRPTISPRP	-0.12
RRIRSRPPRLPRPRPRPYTVPRP	-0.676
RRIRWRPPRLPRPRPRPGHDPRP	0.043
RRIRQRPPRLPRPRPRPLIIPRP	-0.781
RRIRLRPPRLPRPRPRPRGHPRP	0.078
RRIRYRPPRLPRPRPRPHVNPRP	-0.0934
RRIRMRPPRLPRPRPRPIYCPRP	-0.163
RRIRERPPRLPRPRPRPVCNPRP	-0.12
RRIRERPPRLPRPRPRPEQPPRP	-0.064
RRIRMRPPRLPRPRPRPHHSPRP	-0.236
RRIRERPPRLPRPRPRPNYNPRP	-1.1
RRIRFRPPRLPRPRPRPDKCPRP	-0.18
RRIRQRPPRLPRPRPRPWKEPRP	-0.103
RRIRARPPRLPRPRPRPVNVPRP	-0.169
RRIRIRPPRLPRPRPRPQWSPRP	-0.618
RRIRWRPPRLPRPRPRPAEDPRP	0.711
RRIRARPPRLPRPRPRPDTHPRP	0.0877
RRIRPRPPRLPRPRPRPIGKPRP	-0.156
RRIRSRPPRLPRPRPRPPQDPRP	0.264
RRIRERPPRLPRPRPRPPCVPRP	-0.159
RRIRERPPRLPRPRPRPVPPPRP	0.22
RRIRKRPPRLPRPRPRPFEKPRP	-0.045
RRIRNRPPRLPRPRPRPETMPRP	-0.0713
RRIRCRPPRLPRPRPRPKRQPRP	0.13

Sequence	shrunken log2 fold change
RRIRFRPPRLPRPRPRPWDAPRP	-0.12
RRIRPRPPRLPRPRPRPCFTPRP	-0.307
RRIRTRPPRLPRPRPRPDLWPRP	0.27
RRIRERPPRLPRPRPRPDFEPRP	-0.117
RRIRHRPPRLPRPRPRPPYGPRP	0.0267
RRIRARPPRLPRPRPRPGPYPRP	1.85
RRIRARPPRLPRPRPRPESPPRP	0.145
RRIRKRPPRLPRPRPRPAGGPRP	0.435
RRIRNRPPRLPRPRPRPRKGPRP	-0.16
RRIRNRPPRLPRPRPRPTHMPRP	0.0687
RRIRPRPPRLPRPRPRPDGGPRP	-0.129
RRIRTRPPRLPRPRPRPCPYPRP	-0.411
RRIRFRPPRLPRPRPRPFTWPRP	-0.816
RRIRRRPPRLPRPRPRPPFEPRP	0.61
RRIRNRPPRLPRPRPRPAFKPRP	-0.0432
RRIRNRPPRLPRPRPRPFWYPRP	0.0148
RRIRHRPPRLPRPRPRPPQYPRP	-0.154
RRIRGRPPRLPRPRPRPIWFPRP	0.31
RRIRPRPPRLPRPRPRPMPCPRP	0.0941
RRIRCRPPRLPRPRPRPRHSPRP	-0.102
RRIRYRPPRLPRPRPRPSCAPRP	-0.921
RRIRPRPPRLPRPRPRPQVCPRP	0.129
RRIRQRPPRLPRPRPRPYIWPRP	-0.0658
RRIRVRPPRLPRPRPRPALEPRP	0.495
RRIRNRPPRLPRPRPRPFVSPRP	-0.394

Sequence	shrunken log2 fold change
RRIRPRPPRLPRPRPRPCNRPRP	-0.148
RRIRCRPPRLPRPRPRPGLGPRP	0.512
RRIRIRPPRLPRPRPRPDTCPRP	0.0578
RRIRSRPPRLPRPRPRPVQDPRP	0.339
RRIRARPPRLPRPRPRPWSFPRP	-0.00357
RRIRWRPPRLPRPRPRPVDAPRP	0.434
RRIRDRPPRLPRPRPRPRSCPRP	0.2
RRIRKRPPRLPRPRPRPKHAPRP	-0.0322
RRIRDRPPRLPRPRPRPTQLPRP	-0.0815
RRIRWRPPRLPRPRPRPVMFPRP	-0.0114
RRIRFRPPRLPRPRPRPMIYPRP	-0.441
RRIRARPPRLPRPRPRPHLFPRP	0.117
RRIRFRPPRLPRPRPRPWTNPRP	-0.289
RRIRKRPPRLPRPRPRPTMKPRP	-0.0364
RRIRKRPPRLPRPRPRPVRCPRP	0.746
RRIRWRPPRLPRPRPRPPKNPRP	0.757
RRIRGRPPRLPRPRPRPASNPRP	0.375
RRIRKRPPRLPRPRPRPEEWPRP	-0.0212
RRIRPRPPRLPRPRPRPVTTPRP	-0.0302
RRIRLRPPRLPRPRPRPAKEPRP	-0.049
RRIRWRPPRLPRPRPRPDQQPRP	0.0822
RRIRNRPPRLPRPRPRPGFHPRP	-0.0379
RRIRSRPPRLPRPRPRPYTWPRP	-0.989
RRIRHRPPRLPRPRPRPEFHPRP	-0.0718
RRIRNRPPRLPRPRPRPIGMPRP	-0.0748
